Paper PMC5388508
pIC50: −log10 of the molar value.

Columns and labels:
[1] = molecular target: integrin αIIbβ3 of human platelets (human (endogenous in platelets)) (UniProt P08514)
[2] = molecular target: integrin αIIbβ3 of human platelets (human (endogenous in platelets)) (UniProt P08514); assay: flow cytometry on cells

**Q.** What does the source list for “Rhodostomin (Rho), recombinant, ^48PRGDMP-^65PRYH (natural protein)”?
**A.** IC50 of inhibition of platelet aggregation [1]: 83.2 nM; pIC50 [2]: 7.04
